Article PMC9482650, “Quantitative fragmentomics allow affinity mapping of interactomes” (Nature Communications, 2022)

T1: LNX2_1, Q8N448
T1 sequence (Q8N448 228-328, limits assumed, looked up): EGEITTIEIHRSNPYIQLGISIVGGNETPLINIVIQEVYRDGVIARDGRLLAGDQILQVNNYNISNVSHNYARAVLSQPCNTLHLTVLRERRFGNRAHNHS


biological target: Q9UMS6; experiment: holdup assay; set-up: key: below the threshold = too weak to quantify, mostly under pKd 3.1 to 4; settings: plain residues with an end cap or a label only (N-terminal biotin on a linker: ttds)

| Binder | pKd |
| --- | --- |
| RSLEEEESQL [GRASP, Q7Z6J2] | below the threshold |
| PKTPPTDTSV [KIR3DL3, Q8N743] | below the threshold |

biological target: Q96FS4; experiment: holdup assay; set-up: key: below the threshold = too weak to quantify, mostly under pKd 3.1 to 4; settings: plain residues with an end cap or a label only (N-terminal biotin on a linker: ttds)

| Binder | pKd |
| --- | --- |
| RSLEEEESQL [GRASP, Q7Z6J2] | below the threshold |
| PKTPPTDTSV [KIR3DL3, Q8N743] | below the threshold |

biological target: Q96SB3; experiment: holdup assay; set-up: key: below the threshold = too weak to quantify, mostly under pKd 3.1 to 4; settings: plain residues with an end cap or a label only (N-terminal biotin on a linker: ttds)

| Binder | pKd |
| --- | --- |
| RSLEEEESQL [GRASP, Q7Z6J2] | below the threshold |
| PKTPPTDTSV [KIR3DL3, Q8N743] | below the threshold |

biological target: Q96HC4; experiment: holdup assay; set-up: key: below the threshold = too weak to quantify, mostly under pKd 3.1 to 4; settings: plain residues with an end cap or a label only (N-terminal biotin on a linker: ttds)

| Binder | pKd |
| --- | --- |
| RSLEEEESQL [GRASP, Q7Z6J2] | below the threshold |
| PKTPPTDTSV [KIR3DL3, Q8N743] | below the threshold |

biological target: Q12923; experiment: holdup assay; set-up: key: below the threshold = too weak to quantify, mostly under pKd 3.1 to 4; settings: plain residues with an end cap or a label only (N-terminal biotin on a linker: ttds)

| Binder | pKd |
| --- | --- |
| RSLEEEESQL [GRASP, Q7Z6J2] | below the threshold |
| PKTPPTDTSV [KIR3DL3, Q8N743] | below the threshold |

biological target: Q6ZWJ1; experiment: holdup assay; set-up: key: below the threshold = too weak to quantify, mostly under pKd 3.1 to 4; settings: plain residues with an end cap or a label only (N-terminal biotin on a linker: ttds)

| Binder | pKd |
| --- | --- |
| RSLEEEESQL [GRASP, Q7Z6J2] | below the threshold |
| PKTPPTDTSV [KIR3DL3, Q8N743] | below the threshold |

biological target: Q8IUC4; experiment: holdup assay; set-up: key: below the threshold = too weak to quantify, mostly under pKd 3.1 to 4; settings: plain residues with an end cap or a label only (N-terminal biotin on a linker: ttds)

| Binder | pKd |
| --- | --- |
| RSLEEEESQL [GRASP, Q7Z6J2] | below the threshold |
| PKTPPTDTSV [KIR3DL3, Q8N743] | below the threshold |

biological target: O00233; experiment: holdup assay; set-up: key: below the threshold = too weak to quantify, mostly under pKd 3.1 to 4; settings: plain residues with an end cap or a label only (N-terminal biotin on a linker: ttds)

| Binder | pKd |
| --- | --- |
| RSLEEEESQL [GRASP, Q7Z6J2] | below the threshold |
| PKTPPTDTSV [KIR3DL3, Q8N743] | below the threshold |

biological target: Q9C0E4; experiment: holdup assay; set-up: key: below the threshold = too weak to quantify, mostly under pKd 3.1 to 4; settings: plain residues with an end cap or a label only (N-terminal biotin on a linker: ttds)

| Binder | pKd |
| --- | --- |
| RSLEEEESQL [GRASP, Q7Z6J2] | below the threshold |
| PKTPPTDTSV [KIR3DL3, Q8N743] | below the threshold |

biological target: Q9UDY2; experiment: holdup assay; set-up: key: below the threshold = too weak to quantify, mostly under pKd 3.1 to 4; settings: plain residues with an end cap or a label only (N-terminal biotin on a linker: ttds)

| Binder | pKd |
| --- | --- |
| RSLEEEESQL [GRASP, Q7Z6J2] | below the threshold |
| PKTPPTDTSV [KIR3DL3, Q8N743] | below the threshold |

biological target: O75970; experiment: holdup assay; set-up: key: below the threshold = too weak to quantify, mostly under pKd 3.1 to 4; settings: plain residues with an end cap or a label only (N-terminal biotin on a linker: ttds)

| Binder | pKd |
| --- | --- |
| RSLEEEESQL [GRASP, Q7Z6J2] | below the threshold |
| PKTPPTDTSV [KIR3DL3, Q8N743] | below the threshold |

biological target: O00560; experiment: holdup assay; set-up: key: below the threshold = too weak to quantify, mostly under pKd 3.1 to 4; settings: plain residues with an end cap or a label only (N-terminal biotin on a linker: ttds)

| Binder | pKd |
| --- | --- |
| RSLEEEESQL [GRASP, Q7Z6J2] | below the threshold |
| PKTPPTDTSV [KIR3DL3, Q8N743] | below the threshold |

biological target: Q9NPB6; experiment: holdup assay; set-up: key: below the threshold = too weak to quantify, mostly under pKd 3.1 to 4; settings: plain residues with an end cap or a label only (N-terminal biotin on a linker: ttds)

| Binder | pKd |
| --- | --- |
| RSLEEEESQL [GRASP, Q7Z6J2] | below the threshold |
| PKTPPTDTSV [KIR3DL3, Q8N743] | below the threshold |

biological target: LNX1_4, Q8TBB1; experiment: holdup assay; set-up: key: below the threshold = too weak to quantify, mostly under pKd 3.1 to 4; settings: plain residues with an end cap or a label only (N-terminal biotin on a linker: ttds)
Sequence (Q8TBB1 631-726): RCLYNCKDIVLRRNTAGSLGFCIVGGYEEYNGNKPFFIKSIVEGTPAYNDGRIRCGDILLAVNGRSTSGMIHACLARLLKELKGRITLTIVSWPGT

| Binder | pKd |
| --- | --- |
| SSRTRRETQL [HPV16-E6, P03126] | below the threshold |

biological target: Q96JY6; experiment: holdup assay; set-up: key: below the threshold = too weak to quantify, mostly under pKd 3.1 to 4; settings: plain residues with an end cap or a label only (N-terminal biotin on a linker: ttds)

| Binder | pKd |
| --- | --- |
| RSLEEEESQL [GRASP, Q7Z6J2] | below the threshold |
| PKTPPTDTSV [KIR3DL3, Q8N743] | below the threshold |

biological target: Q13368; experiment: holdup assay; set-up: key: below the threshold = too weak to quantify, mostly under pKd 3.1 to 4; settings: plain residues with an end cap or a label only (N-terminal biotin on a linker: ttds)

| Binder | pKd |
| --- | --- |
| RSLEEEESQL [GRASP, Q7Z6J2] | below the threshold |
| PKTPPTDTSV [KIR3DL3, Q8N743] | below the threshold |

biological target: Q70Z35; experiment: holdup assay; set-up: key: below the threshold = too weak to quantify, mostly under pKd 3.1 to 4; settings: plain residues with an end cap or a label only (N-terminal biotin on a linker: ttds)

| Binder | pKd |
| --- | --- |
| RSLEEEESQL [GRASP, Q7Z6J2] | below the threshold |
| PKTPPTDTSV [KIR3DL3, Q8N743] | below the threshold |

biological target: Q9P227; experiment: holdup assay; set-up: key: below the threshold = too weak to quantify, mostly under pKd 3.1 to 4; settings: plain residues with an end cap or a label only (N-terminal biotin on a linker: ttds)

| Binder | pKd |
| --- | --- |
| RSLEEEESQL [GRASP, Q7Z6J2] | below the threshold |
| PKTPPTDTSV [KIR3DL3, Q8N743] | below the threshold |

biological target: O43166; experiment: holdup assay; set-up: key: below the threshold = too weak to quantify, mostly under pKd 3.1 to 4; settings: plain residues with an end cap or a label only (N-terminal biotin on a linker: ttds)

| Binder | pKd |
| --- | --- |
| RSLEEEESQL [GRASP, Q7Z6J2] | below the threshold |
| PKTPPTDTSV [KIR3DL3, Q8N743] | below the threshold |

biological target: Q9ULJ8; experiment: holdup assay; set-up: key: below the threshold = too weak to quantify, mostly under pKd 3.1 to 4; settings: plain residues with an end cap or a label only (N-terminal biotin on a linker: ttds)

| Binder | pKd |
| --- | --- |
| RSLEEEESQL [GRASP, Q7Z6J2] | below the threshold |
| PKTPPTDTSV [KIR3DL3, Q8N743] | below the threshold |

biological target: Q9NR12; experiment: holdup assay; set-up: key: below the threshold = too weak to quantify, mostly under pKd 3.1 to 4; settings: plain residues with an end cap or a label only (N-terminal biotin on a linker: ttds)

| Binder | pKd |
| --- | --- |
| RSLEEEESQL [GRASP, Q7Z6J2] | below the threshold |
| PKTPPTDTSV [KIR3DL3, Q8N743] | below the threshold |

biological target: O15021; experiment: holdup assay; set-up: key: below the threshold = too weak to quantify, mostly under pKd 3.1 to 4; settings: plain residues with an end cap or a label only (N-terminal biotin on a linker: ttds)

| Binder | pKd |
| --- | --- |
| RSLEEEESQL [GRASP, Q7Z6J2] | below the threshold |
| PKTPPTDTSV [KIR3DL3, Q8N743] | below the threshold |

biological target: T1, LNX2_1, Q8N448; experiment: holdup assay; set-up: key: below the threshold = too weak to quantify, mostly under pKd 3.1 to 4; settings: plain residues with an end cap or a label only (N-terminal biotin on a linker: ttds)

| Binder | pKd |
| --- | --- |
| SSRTRRETQL [HPV16-E6, P03126] | below the threshold |

biological target: O60759; experiment: holdup assay; set-up: key: below the threshold = too weak to quantify, mostly under pKd 3.1 to 4; settings: plain residues with an end cap or a label only (N-terminal biotin on a linker: ttds)

| Binder | pKd |
| --- | --- |
| RSLEEEESQL [GRASP, Q7Z6J2] | below the threshold |
| PKTPPTDTSV [KIR3DL3, Q8N743] | below the threshold |

biological target: Q96JB8; experiment: holdup assay; set-up: key: below the threshold = too weak to quantify, mostly under pKd 3.1 to 4; settings: plain residues with an end cap or a label only (N-terminal biotin on a linker: ttds)

| Binder | pKd |
| --- | --- |
| RSLEEEESQL [GRASP, Q7Z6J2] | below the threshold |
| PKTPPTDTSV [KIR3DL3, Q8N743] | below the threshold |

biological target: Q13009; experiment: holdup assay; set-up: key: below the threshold = too weak to quantify, mostly under pKd 3.1 to 4; settings: plain residues with an end cap or a label only (N-terminal biotin on a linker: ttds)

| Binder | pKd |
| --- | --- |
| RSLEEEESQL [GRASP, Q7Z6J2] | below the threshold |
| PKTPPTDTSV [KIR3DL3, Q8N743] | below the threshold |

biological target: NHERF4_3, Q86UT5; experiment: holdup assay; set-up: key: below the threshold = too weak to quantify, mostly under pKd 3.1 to 4; settings: plain residues with an end cap or a label only (N-terminal biotin on a linker: ttds)
Sequence (Q86UT5 325-412): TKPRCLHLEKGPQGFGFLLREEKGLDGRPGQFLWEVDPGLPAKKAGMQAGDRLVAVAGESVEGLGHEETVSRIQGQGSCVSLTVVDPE

| Binder | pKd |
| --- | --- |
| SSRTRRETQL [HPV16-E6, P03126] | 4.13 |
| RSLEEEESQL [GRASP, Q7Z6J2] | below the threshold |
| SRPQRTQTQV [HPV67-E6, A4U7F2] | below the threshold |

biological target: Q5TCQ9; experiment: holdup assay; set-up: key: below the threshold = too weak to quantify, mostly under pKd 3.1 to 4; settings: plain residues with an end cap or a label only (N-terminal biotin on a linker: ttds)

| Binder | pKd |
| --- | --- |
| RSLEEEESQL [GRASP, Q7Z6J2] | below the threshold |
| PKTPPTDTSV [KIR3DL3, Q8N743] | below the threshold |

biological target: Q9H190; experiment: holdup assay; set-up: key: below the threshold = too weak to quantify, mostly under pKd 3.1 to 4; settings: plain residues with an end cap or a label only (N-terminal biotin on a linker: ttds)

| Binder | pKd |
| --- | --- |
| RSLEEEESQL [GRASP, Q7Z6J2] | below the threshold |
| PKTPPTDTSV [KIR3DL3, Q8N743] | below the threshold |
